Assay in all cases: fluorescence polarisation; fluorescence anisotropy, equilibrium binding of Nrd1 CID variants to FAM-labelled NIM peptides; 10°C, 50 mM Na2HPO4, 100 mM NaCl, pH 8; 1:1 model with non-specific binding (DynaFit)
What all share (conditions): both partners purified
A general note: Polarisation of emitted light reports the rotation of a fluorescent probe.

One test deals with T1, Nrd1 CID I130N (S. cerevisiae, UniProt P53617 1-153, I130N).
T1 construct: the construct for anisotropy is made as described previously (Kubicek et al, 2012); also called CID(I130N)-His6; source: recombinant, produced and purified as described previously (Kubicek et al, 2012); plasmid with T7 promoter
T1 sequence (looked up): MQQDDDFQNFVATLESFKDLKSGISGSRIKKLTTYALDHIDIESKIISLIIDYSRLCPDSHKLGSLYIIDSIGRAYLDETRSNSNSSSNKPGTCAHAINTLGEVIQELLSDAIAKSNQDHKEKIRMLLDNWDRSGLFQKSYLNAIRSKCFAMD

The target of the next test is T2, Nrd1 CID I130A (S. cerevisiae, UniProt P53617 1-153, I130A).
T2 construct: the construct for anisotropy is made as described previously (Kubicek et al, 2012); also called CID(I130A)-His6; source: recombinant, produced and purified as described previously (Kubicek et al, 2012); plasmid with T7 promoter
T2 sequence (looked up): T1 sequence (looked up) with N130A

For another test, the target named is T3, Nrd1 CID R28D (S. cerevisiae, UniProt P53617 1-153, R28D).
T3 construct: the construct for anisotropy is made as described previously (Kubicek et al, 2012); also called CID(R28D)-His6; source: recombinant, produced and purified as described previously (Kubicek et al, 2012); plasmid with T7 promoter
T3 sequence (looked up): T1 sequence (looked up) with R28D, N130I

One molecule from publication PMC7110113, “Termination of non‐coding transcription in yeast relies on both an RNA Pol II CTD interaction domain and a CTD‐mimicking region in Sen1” (The EMBO Journal, 2020) can be followed below.

Substitutions are numbered along the chain they refer to. Ends that are not written are not given here. FAM = 5,6-carboxyfluorescein

The Kd is the equilibrium constant for the complex coming apart.

B1: Sen1 NIM peptide (Sen1 aa 2,052-2,063) (peptide, UniProt Q00416 2052-2063, looked up)
peptide: {FAM}-DDDEDDYTPSIS
notes: Sen1, S. cerevisiae, fragment harbouring aa 2,052-2,063; source: synthetic peptide
Take B1: the Kd worked out at 8.9 ± 0.5 µM with Nrd1 CID I130N, 7.6 ± 0.3 µM in the test with Nrd1 CID I130A and 78.2 ± 11.5 µM in the test with Nrd1 CID R28D.
